Assay results: US20060024287A1 (published 2006)

T1: recombinant human full-length TrpRS (SY variant) with C-terminal His6-tag
T1 chain: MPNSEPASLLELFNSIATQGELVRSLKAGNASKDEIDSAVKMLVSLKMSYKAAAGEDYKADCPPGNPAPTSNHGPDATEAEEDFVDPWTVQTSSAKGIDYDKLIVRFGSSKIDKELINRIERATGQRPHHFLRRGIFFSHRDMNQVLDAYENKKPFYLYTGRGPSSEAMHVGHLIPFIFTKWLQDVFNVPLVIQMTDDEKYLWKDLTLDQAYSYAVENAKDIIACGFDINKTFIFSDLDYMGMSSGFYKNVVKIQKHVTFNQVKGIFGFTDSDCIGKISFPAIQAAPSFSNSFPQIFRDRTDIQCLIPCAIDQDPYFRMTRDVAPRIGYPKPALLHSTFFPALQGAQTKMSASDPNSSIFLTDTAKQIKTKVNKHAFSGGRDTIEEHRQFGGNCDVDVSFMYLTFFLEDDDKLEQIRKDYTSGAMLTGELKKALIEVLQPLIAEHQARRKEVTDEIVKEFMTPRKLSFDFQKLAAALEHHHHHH

B1: PMN elastase (protein)
chain: IVGGRRARPHAWPFMVSLQLRGGHFCGATLIAPNFVMSAAHCVANVNVRAVRVVLGAHNLSRREPTRQVFAVQRIFENGYDPVNLLNDIVILQLNGSATINANVQVAQLPAQGRRLGNGVQCLAMGWGLLGRNRGIASVLQELNVTVVTSLCRRSNVCTLVRGRQAGVCFGDSGSPLVCNGLIHGIASFVRGGCASGLYPDAFAPVAQFVNWIDSIIQ
B2: T2-TrpRS (SY variant, without 6-His tag) produced by E. coli expression of the vector of SEQ ID NO: 70 (pAS-001) (other)
chain: SAKGIDYDKLIVRFGSSKIDKELINRIERATGQRPHHFLRRGIFFSHRDMNQVLDAYENKKPFYLYTGRGPSSEAMHVGHLIPFIFTKWLQDVFNVPLVIQMTDDEKYLWKDLTLDQAYSYAVENAKDIIACGFDINKTFIFSDLDYMGMSSGFYKNVVKIQKHVTFNQVKGIFGFTDSDCIGKISFPAIQAAPSFSNSFPQIFRDRTDIQCLIPCAIDQDPYFRMTRDVAPRIGYPKPALLHSTFFPALQGAQTKMSASDPNSSIFLTDTAKQIKTKVNKHAFSGGRDTIEEHRQFGGNCDVDVSFMYLTFFLEDDDKLEQIRKDYTSGAMLTGELKKALIEVLQPLIAEHQARRKEVTDEIVKEFMTPRKLSFDFQ
notes: the entries describe two such monomers associating non-covalently into a dimer; also called T2-TrpRS product

Tests used:
[1] = target: T1, recombinant human full-length TrpRS (SY …)
[2] = target: the molecule itself; experiment: SDS-PAGE, unheated against heated samples; band at roughly 86 kDa disappears on heating, band at roughly 43 kD remains

Protein	cleavage seen on 12.5% SDS-polyacrylamide gels [1]	binding result [2]
B1	cleavage of full-length TrpRS (SY variant) by PMN elastase generated a major fragment of about 46 kDa (SEQ ID NO: 25) and a minor fragment of about 43.5 kDa (SEQ ID NO: 24)	
B2		binds
